Source: paper PMC6739470, “Modular Protein Ligation: A New Paradigm as a Reagent Platform for Pre-Clinical Drug Discovery” (Scientific Reports, 2019)

B1: sCD73flagACK-biotin (soluble CD73 truncated after S552, C-terminal flag-Ala, ligated to C[K-PEG2-Biotin]) (enzyme, human, UniProt P21589 27-552, looked up)
chain: WELTILHTNDVHSRLEQTSEDSSKCVNASRCMGGVARLFTKVQQIRRAEPNVLLLDAGDQYQGTIWFTVYKGAEVAHFMNALRYDAMALGNHEFDNGVEGLIEPLLKEAKFPILSANIKAKGPLASQISGLYLPYKVLPVGDEVVGIVGYTSKETPFLSNPGTNLVFEDEITALQPEVDKLKTLNVNKIIALGHSGFEMDKLIAQKVRGVDVVVGGHSNTFLYTGNPPSKEVPAGKYPFIVTSDDGRKVPVVQAYAFGKYLGYLKIEFDERGNVISSHGNPILLNSSIPEDPSIKADINKWRIKLDNYSTQELGKTIVYLDGSSQSCRFRECNMGNLICDAMINNNLRHTDEMFWNHVSMCILNGGGIRSPIDERNNGTITWENLAAVLPFGGTFDLVQLKGSTLKKAFEHSVHRYGQSTGEFLQVGGIHVVYDLSRKPGDRVVKLDVLCTKCRVPSYDPLKMDEVYKVILPNFLANGGDGFQMIKDELLRHDSGDQDINVVSTYISKMKVIYPAVEGRIKFSTGS
modifications: C-terminal Ala-Cys-Lys after the flag tag (Ala from the construct, Cys-Lys dipeptide added by expressed protein ligation); PEG2-biotin on the epsilon-amino group of the lysine
notes: soluble CD73 (5'-nucleotidase), truncated after residue S552; Uniprot P21589; Chain order: CD73(to S552)-flag-Ala-Cys-Lys(PEG2-biotin); Secreted protein; also called CD73 labeled with CK-biotin; sCD73flagACK-label; source: HEK293 cells transduced with BacMam, secreted as GyrA-CBD fusion; captured on chitin resin, ligated in 36 mM MESNA, sized on Superdex 200; not shown: FLAG, C-terminal, kept
B2: sCD73-flag-CK-fluorescein (soluble CD73 truncated after S552, C-terminal flag-Ala, ligated to C[K-fluorescein]) (enzyme, human, UniProt P21589 27-552, looked up)
chain: B1 chain
modifications: C-terminal Ala-Cys-Lys after the flag tag (Ala from the construct, Cys-Lys dipeptide added by expressed protein ligation); fluorescein on the epsilon-amino group of the lysine
notes: soluble CD73 (5'-nucleotidase), truncated after residue S552; Uniprot P21589; Chain order: CD73(to S552)-flag-Ala-Cys-Lys(fluorescein); Secreted protein; also called CD73 EPL fluorescein labeled; CD73 labeled with CK-fluorescein; source: HEK293 cells transduced with BacMam, secreted as GyrA-CBD fusion; captured on chitin resin, ligated in 36 mM MESNA, sized on Superdex 200; not shown: FLAG, …

Target: the molecule itself
Experiment: SEC; Superdex 200 column, final labeled products, compared with MW standards; no aggregate peak observed

Protein | stoichiometry N
B1 | 2
B2 | 2
